The values that follow come from patent US20080045469A1 (published 2008).

Series [1] concerns the molecule itself. The series is described as follows: sandwich ELISA of cell lysates and conditioned media of hPLGF-1-KDEL-LLC cells. The text has this: To quantify the amounts of intracellular and extracellular dimeric molecules, a sensitive sandwich ELISA assay was used to analyze cell lysates and conditioned media from transduced and non-transduced LLC cell lines. Specific antibodies were used against each factor, either two antibodies against the same factor but raised in different species (homodimers) or two antibodies against different factors (heterodimers). As expected, a high level of mVEGF homodimers was detected in conditioned media from controls, wt LLC and vector-transduced LLC cells (Table 1).

Series [2] concerns the target recombinant human VEGF165 monomer (E. coli) (human, UniProt P15692-4 27-191). The series is described as follows: in vitro reduction and refolding of E. coli proteins. As to the method:
Recombinant human PLGF-1 (SEQ ID NO: 1) and VEGF₁ monomers were expressed in E. Coli as previously described⁴⁴. An equimolar of mixture of PLGF-1- and VEGF₁ homodimers, at a total protein concentration of 0.5 mg/ml, was incubated in reducing buffer (20 mM Tris-HC1, pH 8.0, 6 M guanidine-HC1, and 10 mM DTT) at 4° C. over night. The following day the protein solution was dialyzed against 10 volumes of refolding buffer (2 M urea, 20 mM Tris-HC1, pH 8.0, 2 mM GSH (glutathione-SH) and 0.5 mM GSSG (glutathione-S-S-glutathione)). Using this refolding protocol, a mixture of homodimeric PLGF-1 and VEGF₁ as well as heterodimeric PLGF-1/VEGF was generated.

In series [3] the target is T1, human VEGF165 expressed in transduced LLC cells (human), P15692.
T1 chain: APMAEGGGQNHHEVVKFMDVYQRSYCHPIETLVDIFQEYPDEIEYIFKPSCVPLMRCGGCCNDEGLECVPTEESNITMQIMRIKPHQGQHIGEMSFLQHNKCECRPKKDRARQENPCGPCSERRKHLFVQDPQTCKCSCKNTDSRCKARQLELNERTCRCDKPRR
The series is described as follows: sandwich ELISA of conditioned medium of hVEGF-LLC cells, homodimer format. The following applies: remark: other sources report otherwise. In general terms: ELISA stands for enzyme-linked immunosorbent assay.

B1: human PLGF-1 with C-terminal KDEL ER-retention signal (ligand)
chain: LPAVPPQQWALSAGNGSSEVEVVPFQEVWGRSYCRALERLVDVVSEYPSEVEHMFSPSCVSLLRCTGCCGDENLHCVPVETANVTMQLLKIRSGDRPSYVELTFSQHVRCECRPLREKMKPERCGDAVPRRKDEL
notes: Expressed in transduced LLC cells; also called hPLGF-1-KDEL; PLGF-1-KDEL
With B1, the binding result in series [1] is “binds”.

B2: recombinant human PLGF-1 monomer (E. coli) (ligand)
chain: LPAVPPQQWALSAGNGSSEVEVVPFQEVWGRSYCRALERLVDVVSEYPSEVEHMFSPSCVSLLRCTGCCGDENLHCVPVETANVTMQLLKIRSGDRPSYVELTFSQHVRCECRPLREKMKPERCGDAVPRR
On to B2, for which the binding result in series [2] is “binds”.

B3: human VEGF165 expressed in transduced LLC cells, P15692 27-191 (ligand, UniProt P15692-4 27-191, looked up)
chain: APMAEGGGQNHHEVVKFMDVYQRSYCHPIETLVDIFQEYPDEIEYIFKPSCVPLMRCGGCCNDEGLECVPTEESNITMQIMRIKPHQGQHIGEMSFLQHNKCECRPKKDRARQENPCGPCSERRKHLFVQDPQTCKCSCKNTDSRCKARQLELNERTCRCDKPRR
B3: the homodimer concentration in conditioned medium in series [3] turned out to be 41900 pg/mL.
